Legend:
Experiment in all cases: purified protein
Conditions in all cases: pH 7.6, 37 °C, 1 mM MgCl2, 10 mM Tris-HCl
purified protein [1] = substrate: Nc1nc(=O)n([C@H]2C[C@H](O)[C@@H](COP(=O)(O)OP(=O)(O)OP(=O)(O)O)O2)cc1CO
Source text: (§1) Pi-sensor (MDCC-PBP) fluorescence, PPase coupled on Q5LBB1_BACFN

purified protein [2] = substrate: Cc1cn([C@H]2C[C@H](O)[C@@H](COP(=O)(O)OP(=O)(O)OP(=O)(O)O)O2)c(=O)nc1N
Source text: as §1

purified protein [3] = substrate: Nc1nc(=O)n([C@H]2C[C@H](O)[C@@H](COP(=O)(O)OP(=O)(O)OP(=O)(O)O)O2)cc1O
Source text: as §1

purified protein [4] = substrate: Cc1cn([C@@H]2O[C@H](COP(=O)(O)OP(=O)(O)OP(=O)(O)O)[C@@H](O)[C@H]2O)c(=O)nc1N
Source text: as §1

B1: Q5LBB1_BACFN (Bacteroides fragilis NCTC 9343) (protein)
chain: MKSIEVVAAVIRLGEKYLCVQRGQTKFSYTSFRYEFPGGKVEEGESLQEALQREIMEEMDYVIEVGEKLLTVHHTYPDFEITMHAFLCHPVGQRYVLKEHIAAQWLSTREMAILDWAEADKPIVRKISEQ
- Km (purified protein [1]): 10 ± 5 µM
- kcat (purified protein [1]): 45 ± 11 s⁻¹
- kcat/Km (purified protein [1]): 4.4e+06 ± 1e+06 M⁻¹ s⁻¹
- Km (purified protein [2]): 3.0 ± 0.8 µM
- kcat (purified protein [2]): 14 ± 1 s⁻¹
- kcat/Km (purified protein [2]): 4.8e+06 ± 1e+06 M⁻¹ s⁻¹
- Km (purified protein [3]): 9.2 ± 2.8 µM
- kcat (purified protein [3]): 0.78 ± 0.11 s⁻¹
- kcat/Km (purified protein [3]): 85000 ± 14000 M⁻¹ s⁻¹
- Km (purified protein [4]): 2.5 ± 1.2 µM
- kcat (purified protein [4]): 16 ± 3 s⁻¹
- kcat/Km (purified protein [4]): 6.7e+06 ± 2.4e+06 M⁻¹ s⁻¹

Reference: article PMC5158307, “Substrate specificity characterization for eight putative nudix hydrolases. Evaluation of criteria for substrate identification within the Nudix family” (Proteins, 2016)
